Assay results published in US20230287089A1 (FLAGSHIP PIONEERING INNOVATIONS VI, published 2023).

Columns and labels:
[1] = biological target: T1, SARS-CoV-2 receptor binding domain (RBD) antigen (SARS-CoV-2, UniProt P0DTC2 319-527); test: yeast surface display, titration of biotinylated RBD, flow cytometry
T1 construct: also called SARS-COV-2 RBD; COV-2 RBD

[2] = biological target: T1, SARS-CoV-2 receptor binding domain …

B1: Reference (VH of Reference fused to a c-Myc epitope tag, displayed on yeast) (VHH)
VHH: QVQLQESGGGLVQAGGSLRLSCAASGRTFSEYAMGWFRQAPGKEREFVATISWSGGSTYYTDSVKGRFTISRDNAKNTVYLQMNSLKPDDTAVYYCAAAGLGTVVSEWDYDYDYWGQGTQVTVSS
B1 was tested, and the Kd [1] was 6 nM and the “EC50 (read off the curve)” value [2] was about 6 nM.

B2: AB-1 (VH of AB-1 fused to a c-Myc epitope tag, displayed on yeast) (VHH)
VHH: QVQLQESGGGLVQAGGSLRLSCAASGRTFSEYAMGWFRQAPGKEREFVATISWSGGSTYYTDSVKGRFTISRDNAKNTVYLQMNSLKPDDTAVYYCAAAGLGVVLSEWDYDYDYWGQGTQVTVSS
B2 was tested, and the Kd [1] was 9.3 nM and the “EC50 (read off the curve)” value [2] was about 5 nM.

B3: AB-2 (VH of AB-2 fused to a c-Myc epitope tag, displayed on yeast) (VHH)
VHH: QVQLQESGGGLVQAGGSLRLSCAASGRTFSEYAMGWFRQAPGKEREFVATISYSGGSTYYTDSVKGRFTISRDNAKNTVYLQMNSLKPDDTAVYYCAAAGLGVHVSEWDYDYDYWGQGTQVTVSS
In the case of B3, the Kd [1] is reported as 6.6 nM and the “EC50 (read off the curve)” value [2] is reported as about 6 nM.
